Experiment [1] has as its target CD74 (invariant chain, Ii) (human) (UniProt P04233). Briefly: flow cytometry, permeabilized Raji cells. (In general: In flow cytometry, cells or beads pass a laser one at a time.)
Experiment [2] shares this target. The experiment in a line: flow cytometry, surface only, A-375 cells.
Experiment [3] shares this target. Briefly: flow cytometry, permeabilized A-375 cells.
The target is the same in experiment [4]. Briefly: flow cytometry, permeabilized Hs746T cells.
Experiment [5] has the same target. The experiment in a line: flow cytometry, permeabilized Hep-G2 cells.
Experiment [6] has the same target. The experiment in a line: flow cytometry, surface only, NCI-N87 cells.
Experiment [7] shares this target. Briefly: flow cytometry, surface only, Capan-1 cells.
Experiment [8] shares this target. The experiment in a line: flow cytometry, permeabilized HuH-7 cells.
Experiment [9] shares this target. Briefly: flow cytometry, surface only, Raji cells.
For experiment [10] the target is unchanged. The experiment in a line: flow cytometry, permeabilized Capan-1 cells.
For experiment [11] the target is unchanged. Briefly: flow cytometry, surface only, Hep-G2 cells.
For experiment [12] the target is unchanged. The experiment in a line: flow cytometry, permeabilized NCI-N87 cells.
For experiment [13] the target is unchanged. Briefly: flow cytometry, surface only, HuH-7 cells.
Experiment [14] has the same target. The experiment in a line: flow cytometry, surface only, Hs746T cells.
The target in experiment [15] is human trophoblast cell-surface antigen (Trop-2) (human) (UniProt P09758). Briefly: cell-based or functional assay.
Experiment [16] has the same target. Briefly: FACS on SK-MES-1 cells.
Experiment [17] shares this target. Briefly: FACS on BxPC-3 cells; background 3.1.
The target is the same in experiment [18]. Briefly: FACS on Capan-1 cells; background 5.0.
Experiment [19] shares this target. Briefly: FACS on PC-3 cells; background 5.5.
The target is the same in experiment [20]. Briefly: flow cytometry, surface, NCI-N87 cells.
The target is the same in experiment [21]. The experiment in a line: FACS on COLO 205 cells.
Experiment [22] shares this target. The experiment in a line: flow cytometry, surface, Capan-1 cells.
Experiment [23] shares this target. Briefly: FACS on Calu-3 cells.
For experiment [24] the target is unchanged. The experiment in a line: FACS on COLO 205 cells; background 4.5.
For experiment [25] the target is unchanged. Briefly: FACS on PC-3 cells.
Experiment [26] shares this target. Briefly: FACS on Capan-1 cells.
The target is the same in experiment [27]. The experiment in a line: FACS on SK-MES-1 cells; background 3.5.
Experiment [28] shares this target. The experiment in a line: FACS on BxPC-3 cells.
Experiment [29] shares this target. Briefly: FACS on Calu-3 cells; background 4.7.

human trophoblast cell-surface antigen (Trop-2) (human), sequence (P09758 27-323): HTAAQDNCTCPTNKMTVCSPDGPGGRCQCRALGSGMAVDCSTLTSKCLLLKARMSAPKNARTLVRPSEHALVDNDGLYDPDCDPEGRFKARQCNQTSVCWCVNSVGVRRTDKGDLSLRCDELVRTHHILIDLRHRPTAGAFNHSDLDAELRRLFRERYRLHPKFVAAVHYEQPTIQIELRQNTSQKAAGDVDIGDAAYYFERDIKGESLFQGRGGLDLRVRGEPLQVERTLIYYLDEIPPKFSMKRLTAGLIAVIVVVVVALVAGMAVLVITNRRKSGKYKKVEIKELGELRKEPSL
CD74 (invariant chain, Ii) (human), sequence (P04233 whole entry, change not shown): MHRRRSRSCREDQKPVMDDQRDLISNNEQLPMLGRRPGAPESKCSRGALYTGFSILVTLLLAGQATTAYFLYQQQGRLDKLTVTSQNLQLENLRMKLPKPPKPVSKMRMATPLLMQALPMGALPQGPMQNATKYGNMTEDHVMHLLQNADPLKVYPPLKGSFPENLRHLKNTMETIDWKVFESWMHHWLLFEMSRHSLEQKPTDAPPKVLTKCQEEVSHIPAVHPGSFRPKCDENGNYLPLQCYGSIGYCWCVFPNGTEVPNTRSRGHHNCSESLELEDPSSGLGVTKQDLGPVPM

For the substance “milatuzumab (hLL1), humanized anti-CD74 IgG1 (antibody)”, the MFI ratio hLL1:bkgd (surface and cytoplasmic) in experiment [1] was 28.6; in [3], 30.8; in experiment [4] it was 28.8; in experiment [5], 31.2; in experiment [8], 28.5; in [10], 49.6. Besides, the MFI ratio hLL1:bkgd (surface and cytoplasmic) in experiment [12] came to 36.7. Also, the MFI ratio hLL1:bkgd (surface) turned out to be 5.3 in experiment [2]; 1.3 in [6]; 1.8 in experiment [7]; 19.6 in [9]; 1.5 in [11]; 1.6 in experiment [13]. Besides, the MFI ratio hLL1:bkgd (surface) in experiment [14] was found to be 2.1.

On to “humanized RS7 IgG (hRS7), anti-Trop-2 (antibody)”, for which the ADCC, specific lysis of BxPC-3 target cells by PBMCs (effector to target 100:1), antibody at 33.3 nM in experiment [15] turned out to be 8.5%. The percent positive in [16] amounted to 91.2%; in [21] it was 99.5%; in experiment [23], 99.6%; in experiment [25] it was 73.6%; in experiment [26], 94.2%; in experiment [28] it was 98.3%. In addition, the median fluorescence in [17] came out at 26.4; in experiment [18], 100; in experiment [19], 46.2; in [24] it was 142; in [27] it was 44; in experiment [29] it was 282. In addition, the figures for the MFI (surface) in [20] and in experiment [22] were 795 and 237, respectively.

The values above are taken from patent US20160296633A1.
